This is an account of results in patent US20140056907A1 (Regeneron, published 2014).

The target in one assay is T1, mouse ASIC3 (mouse, UniProt Q6X1Y6 1-530).
T1 construct: whole, on cells; Expressed on stably transfected 3T3 cells (3T3/mASIC3); also called mASIC3
T1 sequence (looked up): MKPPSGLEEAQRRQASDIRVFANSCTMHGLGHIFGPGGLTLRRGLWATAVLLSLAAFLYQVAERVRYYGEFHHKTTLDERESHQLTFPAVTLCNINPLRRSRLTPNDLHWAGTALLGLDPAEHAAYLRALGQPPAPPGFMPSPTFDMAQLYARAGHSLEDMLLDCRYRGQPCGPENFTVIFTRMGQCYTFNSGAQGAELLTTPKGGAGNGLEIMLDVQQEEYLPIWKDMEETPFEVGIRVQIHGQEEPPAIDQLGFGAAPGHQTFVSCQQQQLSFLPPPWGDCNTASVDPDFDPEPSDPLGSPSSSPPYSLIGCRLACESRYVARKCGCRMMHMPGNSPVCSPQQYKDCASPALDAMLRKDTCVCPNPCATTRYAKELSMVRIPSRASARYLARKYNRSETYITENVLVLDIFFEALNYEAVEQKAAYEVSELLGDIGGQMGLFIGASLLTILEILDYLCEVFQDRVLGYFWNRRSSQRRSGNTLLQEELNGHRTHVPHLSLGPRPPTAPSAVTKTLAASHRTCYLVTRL
The assay can be described thus: FACS, 3T3/mASIC3 cells. An excerpt:
(§1) For these experiments, four cell lines were constructed: (a) a mouse fibroblast 3T3 cell line stably transfected to overexpress full length human ASIC3 (3T3/hASIC3; amino acids 1-531 of NCBI accession number NP_{—}004760.1), (b) a 3T3 cell line stably transfected to co-express full length human ASIC1a and human ASIC3 (3T3/hASIC1/3; amino acids 1-528 of NCBI accession number NP_{—}001086.2 and amino acids 1-531 of NCBI accession number NP_{—}004760.1), (c) […] a stably transfected 3T3 cell line expressing the full-length mouse ASIC3 channel (3T3/mASIC3; amino acids 1-530 of NCBI accession number NP_{—}892045.2), and (d) a 3T3 cell line stably transfected to co-express full length mouse ASIC1a and mouse ASIC3 (3T3/mASIC1/3; amino acids 1-526 of NCBI accession number NP_{—}033727 and amino acids 1-530 of NCBI accession number NP_{—}892045.2). Antibody binding was determined using flow cytometry (FACS).
To perform the FACS binding experiments, adherent cells were collected with cold Millipore Accutase 3-5 minutes, spun and resuspended in ice-cold FACS buffer (PBS, 2% HI-FBS and 0.09% Na-azide). […] After incubating for 20 minutes on ice, the cells were washed and resuspended in FACS buffer, then sorted and analyzed on a flow cytometer (FACSCanto II, BD Biosciences, San Jose, Calif.) to determine relative binding by the candidate antibodies to the tested cell lines. […]
On the technique in general: A flow cytometer gives signals particle by particle.

For the next assay, the target named is T2, human ASIC1 (human, UniProt P78348 1-528).
T2 sequence: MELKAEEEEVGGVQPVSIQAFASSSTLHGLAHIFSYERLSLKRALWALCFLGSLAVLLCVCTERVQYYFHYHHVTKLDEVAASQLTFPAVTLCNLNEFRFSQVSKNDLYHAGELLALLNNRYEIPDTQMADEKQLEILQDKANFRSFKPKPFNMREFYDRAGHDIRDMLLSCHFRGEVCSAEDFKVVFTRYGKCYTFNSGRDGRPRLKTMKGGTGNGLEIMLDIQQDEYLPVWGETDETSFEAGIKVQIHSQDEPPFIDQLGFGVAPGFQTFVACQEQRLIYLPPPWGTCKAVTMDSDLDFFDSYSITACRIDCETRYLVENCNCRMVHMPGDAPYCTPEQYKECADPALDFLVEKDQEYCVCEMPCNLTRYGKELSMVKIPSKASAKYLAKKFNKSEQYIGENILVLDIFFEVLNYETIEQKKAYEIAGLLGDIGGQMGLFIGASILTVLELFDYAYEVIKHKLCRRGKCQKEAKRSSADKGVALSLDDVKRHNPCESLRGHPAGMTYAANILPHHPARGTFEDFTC
The assay can be described thus: cell-based or functional assay.

In a further assay the target is T3, human ASIC3 (human, UniProt Q9UHC3 1-531).
T3 construct: whole, on cells; Expressed on 3T3 cells (3T3/hASIC3) or HEK293 cells (HEK/hASIC3-QCells); also called hASIC3
T3 sequence (looked up): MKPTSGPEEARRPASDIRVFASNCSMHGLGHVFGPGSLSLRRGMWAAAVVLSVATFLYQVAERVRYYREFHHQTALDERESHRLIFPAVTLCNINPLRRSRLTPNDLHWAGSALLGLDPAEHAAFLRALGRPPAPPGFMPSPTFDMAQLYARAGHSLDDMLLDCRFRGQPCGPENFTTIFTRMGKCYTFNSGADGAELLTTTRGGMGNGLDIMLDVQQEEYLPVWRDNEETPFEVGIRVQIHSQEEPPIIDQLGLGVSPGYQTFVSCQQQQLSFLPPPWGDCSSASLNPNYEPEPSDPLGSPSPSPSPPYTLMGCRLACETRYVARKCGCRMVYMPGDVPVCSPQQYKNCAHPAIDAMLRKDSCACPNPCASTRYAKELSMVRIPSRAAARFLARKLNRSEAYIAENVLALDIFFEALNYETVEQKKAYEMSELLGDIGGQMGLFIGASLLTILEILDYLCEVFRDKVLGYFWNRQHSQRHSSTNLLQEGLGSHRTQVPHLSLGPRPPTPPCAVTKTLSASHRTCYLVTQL
The assay can be described thus: FACS, 3T3/hASIC3 cells.
From the text: as §1
(§2) To perform the FACS binding experiments, adherent cells were collected with cold Millipore Accutase 3-5 minutes, spun and resuspended in ice-cold FACS buffer (PBS, 2% HI-FBS and 0.09% Na-azide). Anti-ASIC1 antibody at final concentrations of 10 nM was added for 20-30 minutes on ice. Cells were washed with 900 μL ice-cold FACS buffer, spun, and resuspended in 100 μL ice-cold FACS buffer. A secondary antibody which recognizes human Fc (Jackson Immuno Research, #109-136-098) and is conjugated to allophycocyanin, was then added to the cell mixture at a final concentration of 2.5 ug/mL. After incubating for 20 minutes on ice, the cells were washed and resuspended in FACS buffer, then sorted and analyzed on a flow cytometer (FACSCanto II, BD Biosciences, San Jose, Calif.) to determine relative binding by the candidate antibodies to the tested cell lines. Histograms of cells stained with anti-ASIC1 antibodies were compared with those of cells stained with secondary antibody alone. Percentage of ASIC1 signal over secondary antibody alone was calculated using FlowJo software (Tree Star, Ashland, Oreg.).

Assay [1] deals with T4, mouse ASIC1/ASIC3 channels (co-expressed mouse ASIC1a and mouse ASIC3) (mouse, UniProt Q6NXK8 1-526; Q6X1Y6 1-530).
T4 construct: whole, on cells; 3T3 cells co-expressing both subunits; also called 3T3/mASIC1/3
T4 sequence (looked up) 1: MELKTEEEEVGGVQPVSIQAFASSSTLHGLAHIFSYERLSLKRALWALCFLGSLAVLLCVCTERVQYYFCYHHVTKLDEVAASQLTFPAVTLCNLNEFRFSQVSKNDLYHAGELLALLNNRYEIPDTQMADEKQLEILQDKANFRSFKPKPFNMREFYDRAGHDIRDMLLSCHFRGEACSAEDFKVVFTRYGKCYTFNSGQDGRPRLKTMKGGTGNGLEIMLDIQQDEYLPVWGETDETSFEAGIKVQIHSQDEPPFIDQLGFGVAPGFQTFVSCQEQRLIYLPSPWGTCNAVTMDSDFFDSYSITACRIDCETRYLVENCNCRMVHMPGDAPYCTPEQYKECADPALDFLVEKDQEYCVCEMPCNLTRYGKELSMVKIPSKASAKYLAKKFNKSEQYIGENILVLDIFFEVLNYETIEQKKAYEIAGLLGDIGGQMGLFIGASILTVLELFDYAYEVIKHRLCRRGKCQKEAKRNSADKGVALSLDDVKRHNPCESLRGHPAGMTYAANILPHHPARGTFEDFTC
T4 sequence (looked up) 2: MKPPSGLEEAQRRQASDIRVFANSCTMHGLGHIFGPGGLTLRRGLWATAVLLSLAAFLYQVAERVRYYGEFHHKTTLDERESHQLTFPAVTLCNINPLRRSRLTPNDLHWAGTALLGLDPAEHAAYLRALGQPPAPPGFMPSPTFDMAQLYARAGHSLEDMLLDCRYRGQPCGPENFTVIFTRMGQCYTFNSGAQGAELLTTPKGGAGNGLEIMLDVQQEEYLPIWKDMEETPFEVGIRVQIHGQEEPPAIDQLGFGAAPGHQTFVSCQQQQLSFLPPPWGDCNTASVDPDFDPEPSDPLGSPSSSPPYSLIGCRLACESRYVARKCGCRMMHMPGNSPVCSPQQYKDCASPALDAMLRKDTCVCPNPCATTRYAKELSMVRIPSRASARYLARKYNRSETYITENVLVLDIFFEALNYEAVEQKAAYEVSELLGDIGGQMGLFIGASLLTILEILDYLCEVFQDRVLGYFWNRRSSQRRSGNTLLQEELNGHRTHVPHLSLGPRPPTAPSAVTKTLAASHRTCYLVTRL
The assay can be described thus: FACS, 3T3/mASIC1/3 cells, 10 nM antibody. As to the method: Antibody binding was determined using flow cytometry (FACS).
as §2

B1: H4H6718N (antibody, human IgG4, V domains shown)
VH: EVQLLESGGGLVQPGGSLRLSCAASGFTFSSFAMSWVRQAPGKGLEWVSGISGSGGGTHYADSVKGRFTISRDNSKNMVYLQMNSLRAEDTAAYYCAKEAYKWQPWGQGTLVTVSS
VL: DIQMTQSPSTLSASVGDRVIITCRASQRISSWLAWYQQKPGKAPNLLIYKASILESGVPSRFSGSGSGTEFTLTISSLQPDDFATYYCQQYNSYSYTFGQGTKLEIK
With B1, the binding result with mouse ASIC3 is “no binding (tested: 10 nM)”; with human ASIC3 it was “no binding (tested: 10 nM; gated lower than 1%)”; in assay [1] it was “binds”. The “apparent IC50, human ASIC1 current, Q-Patch” value in the assay with human ASIC1 was less than 1 nM.
